Results taken from the supplement of paper PMC10724198.
± gives the standard deviation of the averaged measurements.

Tested on: Saccharomyces cerevisiae
Assay: protein stability index of tFT-peptide fusion (C-terminal peptide) (PSI (0-1 scale)); higher = more stable (slower turnover)
Conditions: temperature: 30 C
Method: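 MPS profiling in S. cerevisiae of the yeast C-terminome library: the last 12 aa of each annotated ORF are fused to the C-terminus of a sfGFP-mCherry timer, after a GGGS linker. Cells are FACS-sorted into 8 mCherry/sfGFP bins and deep-sequenced. PSI runs from 0 (unstable) to 1 (stable); wild type and das1Δ backgrounds, two technical replicates each.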

[1] = genetic background: das1 deletion

## RLVVEPLQGRKH [ISD11 C-terminal 12 aa]
[1]
  protein stability index: 0.729 ± 0.011
Genetic background: wild type
  protein stability index: 0.72 ± 0.036

## RLYVSRLFISKL [ATP8 C-terminal 12 aa]
[1]
  protein stability index: 0.801 ± 0.042
Genetic background: wild type
  protein stability index: 0.671 ± 0.14

## RMDEENYEEEFC [UBP11 C-terminal 12 aa]
[1]
  protein stability index: 0.716 ± 0.02
Genetic background: wild type
  protein stability index: 0.707 ± 0.034

## RNQNSDRLNFQP [YBR138C C-terminal 12 aa]
[1]
  protein stability index: 0.705 ± 0.0061
Genetic background: wild type
  protein stability index: 0.675 ± 0.016

## RPFYKRMFTKEK [HXT5 C-terminal 12 aa]
[1]
  protein stability index: 0.7313 ± 0.0058
Genetic background: wild type
  protein stability index: 0.732 ± 0.033

## RPMPPIRGPKRR [SMD3 C-terminal 12 aa]
[1]
  protein stability index: 0.688 ± 0.017
Genetic background: wild type
  protein stability index: 0.724 ± 0.048

## RPMQHMYINNFT [YAL026C-A C-terminal 12 aa]
[1]
  protein stability index: 0.71914 ± 0.00059
Genetic background: wild type
  protein stability index: 0.672 ± 0.011

## RQLGSKQRKHRL [ECI1 C-terminal 12 aa]
[1]
  protein stability index: 0.786 ± 0.021
Genetic background: wild type
  protein stability index: 0.82 ± 0.026

## RQSRERALGIKR [PRP22 C-terminal 12 aa]
[1]
  protein stability index: 0.6929 ± 0.0054
Genetic background: wild type
  protein stability index: 0.701 ± 0.036

## RRCDDMLYYIQN [POP4 C-terminal 12 aa]
[1]
  protein stability index: 0.716 ± 0.021
Genetic background: wild type
  protein stability index: 0.662 ± 0.011

## RRQMGIPTISQV [FHN1 C-terminal 12 aa]
[1]
  protein stability index: 0.681 ± 0.016
Genetic background: wild type
  protein stability index: 0.6838 ± 0.0048

## RSDTKEPLALLS [VPS20 C-terminal 12 aa]
[1]
  protein stability index: 0.6784 ± 0.0067
Genetic background: wild type
  protein stability index: 0.646 ± 0.01

## RSHSRKNSLSLL [SPO24 C-terminal 12 aa]
[1]
  protein stability index: 0.72 ± 0.021
Genetic background: wild type
  protein stability index: 0.734 ± 0.028

## RTDPDRYSRLSV [ILT1 C-terminal 12 aa]
[1]
  protein stability index: 0.703 ± 0.027
Genetic background: wild type
  protein stability index: 0.7277 ± 0.0055

## SCFSYSVGSKFT [YPR170W-A C-terminal 12 aa]
[1]
  protein stability index: 0.7068 ± 0.0063
Genetic background: wild type
  protein stability index: 0.703 ± 0.014

## SDHCWDGCWWCR [AQY2 C-terminal 12 aa]
[1]
  protein stability index: 0.7424 ± 0.0017
Genetic background: wild type
  protein stability index: 0.765 ± 0.041

## SEEKRRLAPADI [YOL019W-A C-terminal 12 aa]
[1]
  protein stability index: 0.68 ± 0.02
Genetic background: wild type
  protein stability index: 0.691 ± 0.024

## SELKGFVDEVDL [TFC1 C-terminal 12 aa]
[1]
  protein stability index: 0.7183 ± 0.0033
Genetic background: wild type
  protein stability index: 0.721 ± 0.037

## SESLSDSDLEIL [RAD24 C-terminal 12 aa]
[1]
  protein stability index: 0.7105 ± 0.0068
Genetic background: wild type
  protein stability index: 0.666 ± 0.0085

## SFCYVSACGRTQ [YFL021C-A C-terminal 12 aa]
[1]
  protein stability index: 0.677 ± 0.0097
Genetic background: wild type
  protein stability index: 0.709 ± 0.018

## SFFLRNFFPSLF [YDL159W-A C-terminal 12 aa]
[1]
  protein stability index: 0.756 ± 0.026
Genetic background: wild type
  protein stability index: 0.246 ± 0.022

## SFPIASSTTQTS [NST1 C-terminal 12 aa]
[1]
  protein stability index: 0.696 ± 0.021
Genetic background: wild type
  protein stability index: 0.689 ± 0.0087

## SFYDNSLQTWIV [RRT2 C-terminal 12 aa]
[1]
  protein stability index: 0.7484 ± 0.0042
Genetic background: wild type
  protein stability index: 0.752 ± 0.029

## SGEAAEEAEDEE [RPS9B C-terminal 12 aa]
[1]
  protein stability index: 0.652 ± 0.023
Genetic background: wild type
  protein stability index: 0.664 ± 0.039

## SGIKEFFDNYKS [ARO9 C-terminal 12 aa]
[1]
  protein stability index: 0.712 ± 0.027
Genetic background: wild type
  protein stability index: 0.716 ± 0.025

## SGSGNSSKSNCC [SEC4 C-terminal 12 aa]
[1]
  protein stability index: 0.691 ± 0.025
Genetic background: wild type
  protein stability index: 0.674 ± 0.018

## SHDMDFNNAGDF [HMS1 C-terminal 12 aa]
[1]
  protein stability index: 0.707 ± 0.03
Genetic background: wild type
  protein stability index: 0.7067 ± 0.0045

## SHPTEQTEVSSQ [MHR1 C-terminal 12 aa]
[1]
  protein stability index: 0.697 ± 0.0079
Genetic background: wild type
  protein stability index: 0.68 ± 0.02

## SICPAIRRKEDY [RDT1 C-terminal 12 aa]
[1]
  protein stability index: 0.699 ± 0.025
Genetic background: wild type
  protein stability index: 0.659 ± 0.025

## SIPGITGRAQIS [ORM1 C-terminal 12 aa]
[1]
  protein stability index: 0.6983 ± 0.0014
Genetic background: wild type
  protein stability index: 0.6656 ± 0.0065

## SIYDGTEEKIVY [DAL4 C-terminal 12 aa]
[1]
  protein stability index: 0.689 ± 0.018
Genetic background: wild type
  protein stability index: 0.705 ± 0.01

## SKLGINSGLCTN [ESL1 C-terminal 12 aa]
[1]
  protein stability index: 0.683 ± 0.01
Genetic background: wild type
  protein stability index: 0.688 ± 0.03

## SLCMEAGLVNEN [YCF1 C-terminal 12 aa]
[1]
  protein stability index: 0.6959 ± 0.0021
Genetic background: wild type
  protein stability index: 0.663 ± 0.037

## SLDITEDWEVIF [ROT2 C-terminal 12 aa]
[1]
  protein stability index: 0.725 ± 0.023
Genetic background: wild type
  protein stability index: 0.7587 ± 0.0031
